Source: patent publication US20210198377A1 (XDCEXPLORER SHANGHAI, published 2021)
Where a chain is given by its changes, count along the chain named.

T1: biotinylated recombinant TPBG protein (Homo sapiens (Human), UniProt Q13641 32-355, Biotinylated; the number and positions of the biotin labels are not stated and the letters do not carry them.)
T1 sequence: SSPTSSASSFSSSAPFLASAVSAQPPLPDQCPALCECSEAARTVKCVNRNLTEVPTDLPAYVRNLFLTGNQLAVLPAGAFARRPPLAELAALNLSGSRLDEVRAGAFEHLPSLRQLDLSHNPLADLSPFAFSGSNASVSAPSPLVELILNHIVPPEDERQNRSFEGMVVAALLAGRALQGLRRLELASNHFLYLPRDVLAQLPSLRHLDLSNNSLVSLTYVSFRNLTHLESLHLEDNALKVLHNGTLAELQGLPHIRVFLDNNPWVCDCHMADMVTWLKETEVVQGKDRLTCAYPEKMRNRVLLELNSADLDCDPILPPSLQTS

T2: human TPBG-hFc (human, UniProt Q13641 32-355)
T2 construct: also called immunogen A; hFc tagged TPBG protein; not shown: The human IgG Fc fragment of the pCpC vector (Invitrogen V044-50) and any linker to it
T2 sequence: T1 sequence

B1: 5G4H10G5 (antibody, V domains shown)
VH: EVQLVESGGDLVQPGGSLKLFCAASGFTFSTYGLSWVRQTPDKRLELVATITNNDGSAYYPDSVKGRFTISRDKAKNTLFLQMTSLKSEDTAMYYCARETGFGSSYLFDYWGQGTLVTVSA
VL: NIVMTQTPKFLLVSAGDRVTITCKASQSVSNDVAWYQQKPGQSPKLLIYFATNRYTGVPNRFTGSGYGTEFTFTISSVQAEDLAVYFCQQDYSSPTFGGGTKLEIK
notes: Mouse hybridoma antibody purified from culture supernatant; also called TPBG antibody; lead antibody
B2: 37H9C5G2 (antibody, V domains shown)
VH: QVQLQQSDAELVRPGASVKMSCKVSGYTFTDHTIHWMKQRPEQGLEWIGYIYPRDGSGTYNEKFKGKATLTADKSSSTAYMQLNSLTSEDSAVYFCARDGSSHYWYFDVWGTGTTVTVSS
VL: DIQMTQSPASLSASVGETVTITCRASEIIYNYLAWYQQKQGKSPQLLVYNAKTLAEGVPSRFSGSYSGTQFSLNINSLQSEDFGIYYCQHHHDTPLTFGAGTKLDLK
notes: as for B1
B3: 39A11G5F2 (antibody, V domains shown)
VH: QVQLQQSGAELMKPGASMRLSCKATGYTFTGYWLEWIKRRPGHGLEWIGEILPGRGSTNYNEKFKGKATFTAETSSNTAYMQLTSLTTEDSAIYYCARGGRDFDNWGQGTTLTVSS
VL: DIQMTQSTSSLSASLGDRVTISCSASQGINNHLNWYQQKPDGTVKLLIYYTSSLHSGVPSRFSGSGSGTDYSLTISNLEPEDIAIYYCQQFSKLPYTFGGGTKVEMK
notes: as for B1
B4: 52C9E9F6 (antibody, V domains shown)
VH: QVQLQQSGAELMKPGASVKLSCKATGYTFTGYWIEWIKQRPGHGLEWIGEILPGRGSTDYNEKFKGKATFTADTSSNTAYMQLSSLTTEDSAIYYCTRGRLDFTYWGQGTLVTVSA
VL: B3 VL with S7T, N30R, H32Y, I85T, F91Y, L94V, Y96W, V104L, M106I
notes: as for B1
B5: 28D4E6A9 (antibody, V domains shown)
VH: DVQLVESGGGLVRPGGSLKLSCAASGFTFSNYVMSWARQSPEKRLEWVAEISTGGSHTYYSDTVTGRFTISRDNAKKALYLEMSSLRSEDTAIYYCIMFYYGSSYSMDYWGQGTSVTVSS
VL: DIQMTQSTSSLSASLGDRITISCRASQDIRNYLNWYQQKPDGTVKLLIYHTSRLHSGVPSRFSGSGSGTDYSLTISNLEQEDIATYFCQQGDTLPLTFGAGTRLELK
notes: as for B1
B6: 36A10D8B12 (antibody, V domains shown)
VH: DVQLQESGPGMVKPSQSLSLTCTVTGYSITSGYDWHWIRHFPGNKLEWMGYISYSGNTNYNPSLKSRISITHNTSKNHFFLRLNSVTTEDTATYYCARGYGNWDAMDYWGQGTSVTVSS
VL: DIVMTQSQKFMSTSVGDRVSVTCKASQIVDTNVAWYQQKPGQSPKALISSASYRYSGVPDRFTGSGSGTDFTLTISNVQSEDLAEYFCQQYNSYPLTFGAGTKLELT
notes: as for B1
B7: 99E12C7H1 (antibody, V domains shown)
VH: QIQLVQSGPELKKPGETVKISCKPSGYTFTAYGLSWVKQAPGQGFQWMGWINTYSGVPTYTDDFKGRFAFSLETSAGTASLQITNLKNEDTATYFCARSSIPPFEYWGPGTTLTVSS
VL: SFVMTQSPKFLLVSVGDRVTITCKASQSVSNDVAWYQQKPGQPPRVLIYFASNRYTGVPDRFTGSGYGTDFTFTISTVQAEDLALYFCQQDYSSPWTFGGGTKLEIK
notes: as for B1

Experiments:
[1] = biological target: T1, biotinylated recombinant TPBG protein; assay: competitive ELISA; row antibody 5 ug/mL; competitor: coated 39A11G5F2
Procedure: (§1) The purified antibodies to be tested were diluted to 1 μg/mL using PBS, and coated with high-adsorption of 96-well microplates at […]. After overnight coating at 4[…], 250 μL of blocking buffer (PBS containing 0.01% (v/v) Tween20 and 1% (w/w) BSA) was added to block coating at room temperature for 1 h, and 0.05 μg/mL of biotinylated recombinant TPBG protein was added to each well. Meanwhile, 5 μg/mL final concentration of competitive antibodies, i.e. the purified antibodies obtained from Embodiment 2 with the clone number of 12B12C7C3, 5G4H10G5, 37H9C5G2, 39A11G5F2, 52C9E9F6, 28D4E6A9, 36A10D8B12, 99E12C7H1, 103E2E9C2 and 106D5G3D10 were added and incubated at 25-37° C. for 1-2 h. The plates were washed three times with plate-washing buffer (PBS containing 0.01% (v/v) Tween20) and HRP (horseradish peroxidase)-labeled streptavidin (purchased from Sigma) was added. After incubating at 37° C. for 0.5 h, the plates were washed three times with plate-washing buffer (PBS containing 0.01% (v/v) Tween20), and 100 μL of TMB substrate was added to each well and the plates were further incubated at room temperature for 30 min prior to adding 100 μL of stop buffer (1.0N HCl) to each well. A₄₅₀ₙₘ values were read using an ELISA microplate reader (SpectraMax 384plus purchased from Molecular Device) and results were shown in FIG. 6. The higher the values of the competition rate, the closer the antigen surface of the two antibodies are.

human TPBG-hFc [2] = biological target: T2, human TPBG-hFc; assay: ELISA, coated human TPBG-hFc 1.0 ug/mL; antibody 20 nM
Procedure: (§2) The purified immunogen A (as for its method of preparation please refer to step 1 in Example 1) diluting with PBS to a final concentration of 1.0 μg/mL was aliquoted into a 96-well ELISA plate at 100 μL per well, and sealed with a parafilm and incubated at 4° C. overnight. The plate was washed twice with plate washing buffer (PBS containing 0.01% (v/v) Tween 20), and blocked with blocking buffer (PBS containing 0.01% (v/v) Tween 20 and 1% (w/w) BSA) at room temperature for 2 h. The blocking buffer was discarded, and 100 μL per well of the purified antibody obtained from Embodiment 2 was added. After incubating at 37° C. for 2 h, the plate was washed for three times with plate washing buffer (PBS containing 0.01% (v/v) Tween 20). HRP (horseradish peroxidase)-labeled secondary antibody (purchased from Sigma) was added and incubated at 37° C. for 2 h, and the plate was washed for three times using plate washing buffer (PBS containing 0.01% (v/v) Tween 20). 100 μL of TMB substrate was aliquoted into each well, incubated at room temperature for 30 min, and 100 μL of stop buffer (1.0N HCl) per well was subsequently added. A₄₅₀ₙₘ values were read using the ELISA plate reader (SpectraMax 384plus purchased from Molecular Device), and the results were shown in FIG. 6 and table 6. […] In Table 6 the IgG control herein is a mice IgG control, the data in the Table are OD₄₅₀ₘₙ values, and Blank means the OD₄₅₀ₘₙ value when there is only PBS buffer in the plate.

human TPBG-hFc [3] = biological target: T2, human TPBG-hFc; assay: ELISA, coated human TPBG-hFc 1.0 ug/mL; antibody 0.02 nM
Procedure: as §2

[4] = biological target: T1, biotinylated recombinant TPBG protein; assay: competitive ELISA; row antibody 5 ug/mL; competitor: coated 5G4H10G5
Procedure: as §1

[5] = biological target: T1, biotinylated recombinant TPBG protein; assay: competitive ELISA; row antibody 5 ug/mL; competitor: coated 52C9E9F6
Procedure: as §1

[6] = biological target: T1, biotinylated recombinant TPBG protein; assay: competitive ELISA; row antibody 5 ug/mL; competitor: coated 36A10D8B12
Procedure: as §1

[7] = biological target: T1, biotinylated recombinant TPBG protein; assay: competitive ELISA; row antibody 5 ug/mL; competitor: coated 99E12C7H1
Procedure: as §1

human TPBG-hFc [8] = biological target: T2, human TPBG-hFc; assay: ELISA, coated human TPBG-hFc 1.0 ug/mL; antibody 0.2 nM
Procedure: as §2

[9] = biological target: T1, biotinylated recombinant TPBG protein; assay: competitive ELISA; row antibody 5 ug/mL; competitor: coated 103E2E9C2
Procedure: as §1

[10] = biological target: T1, biotinylated recombinant TPBG protein; assay: competitive ELISA; row antibody 5 ug/mL; competitor: coated 37H9C5G2
Procedure: as §1

human TPBG-hFc [11] = biological target: T2, human TPBG-hFc; assay: ELISA, coated human TPBG-hFc 1.0 ug/mL; antibody 2 nM
Procedure: as §2

Binder | competition rate [1] [%] | OD450nm (human TPBG-hFc [2]) [OD450nm] | OD450nm (human TPBG-hFc [3]) [OD450nm] | competition rate [4] [%] | competition rate [5] [%] | competition rate [6] [%] | competition rate [7] [%] | OD450nm (human TPBG-hFc [8]) [OD450nm] | competition rate [9] [%] | competition rate [10] [%] | OD450nm (human TPBG-hFc [11]) [OD450nm]
B1 | 10 | 2.8 | 0.34 | 97 | 19 | 1 | 95 | 1.76 | 2 | 5 | 2.68
B2 | 3 | 2.63 | 0.35 | 12 | 5 | 94 | 7 | 1.55 | 38 | 96 | 2.52
B3 | 96 | 2.5 | 0.3 | 19 | 95 | 0 | 16 | 1.36 | 0 | 0 | 2.43
B4 | 97 | 2.69 | 0.27 | 32 | 97 | 19 | 18 | 1.39 | 0 | 4 | 2.68
B5 | 0 | 2.59 | 0.46 | 11 | 0 | 75 | 11 | 1.97 | 88 | 0 | 2.64
B6 | 4 | 3.07 | 0.51 | 17 | 23 | 85 | 25 | 2.15 | 40 | 96 | 3.06
B7 | 1 | 2.88 | 0.78 | 95 | 0 | 8 | 94 | 2.62 | 1 | 5 | 2.93
